# Results as given in PMC9700808, “Poly ADP-ribosylation of SET8 leads to aberrant H4K20 methylation in mammalian nuclear genome” (Communications Biology, 2021).
# T1: His-SET8 (UniProt Q9NQR1-2 1-352)
# T1 sequence: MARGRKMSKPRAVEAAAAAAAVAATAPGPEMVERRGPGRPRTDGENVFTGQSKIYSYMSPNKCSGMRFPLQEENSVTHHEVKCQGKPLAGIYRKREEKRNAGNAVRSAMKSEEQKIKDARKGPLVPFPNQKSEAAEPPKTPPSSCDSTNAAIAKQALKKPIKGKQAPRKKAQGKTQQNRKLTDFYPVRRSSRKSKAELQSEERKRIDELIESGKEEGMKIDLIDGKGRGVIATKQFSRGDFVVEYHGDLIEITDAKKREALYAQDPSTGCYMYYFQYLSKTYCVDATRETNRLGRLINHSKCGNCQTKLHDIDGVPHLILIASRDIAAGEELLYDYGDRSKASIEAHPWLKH
# B1: EcoRI hairpin oligonucleotide (structured_DNA)
# DNA: GGGAATTCCCAAAGGGAATTCCC
# B2: full-length GST fusion SET8 (GST-SET8 FL) (enzyme, UniProt Q9NQR1-2 1-352, looked up)
# chain: T1 sequence
# notes: SET8 (KMT5A), full length; printed numbering runs to 352 (fragments 157-352, 175-352); vector pGEX5X.1; source: E. coli ER2566, purified, on glutathione-Sepharose beads
# B3: GST-SET8 disorder domain 80-230 (domain or fragment, UniProt Q9NQR1-2 80-230, looked up)
# chain: EVKCQGKPLAGIYRKREEKRNAGNAVRSAMKSEEQKIKDARKGPLVPFPNQKSEAAEPPKTPPSSCDSTNAAIAKQALKKPIKGKQAPRKKAQGKTQQNRKLTDFYPVRRSSRKSKAELQSEERKRIDELIESGKEEGMKIDLIDGKGRGV
# notes: SET8 (KMT5A) disorder domain, residues 80-230; printed numbering runs to 352; vector pGEX5X.1; primers in Supplementary File 1; also called GST-SET8 DD; disorder domain (DD); source: E. coli ER2566, purified, on glutathione-Sepharose beads
# B4: GST-SET8 N-terminal 1-98 (domain or fragment, UniProt Q9NQR1-2 1-98, looked up)
# chain: MARGRKMSKPRAVEAAAAAAAVAATAPGPEMVERRGPGRPRTDGENVFTGQSKIYSYMSPNKCSGMRFPLQEENSVTHHEVKCQGKPLAGIYRKREEK
# notes: SET8 (KMT5A) residues 1-98; vector pGEX5X.1; primers in Supplementary File 1; also called N-terminal 1–98 amino acids; source: E. coli ER2566, purified, on glutathione-Sepharose beads
# Columns and labels:
# His-SET8 = molecular target: T1, His-SET8; assay: EMSA; 2 mM MgCl2; GRB buffer: 20 mM HEPES pH 7.5, 10% glycerol, 25 mM KCl, 0.1 mM EDTA, 1 mM DTT, 2 mM MgCl2, 0.2% NP40; on ice 10-15 min; 6% TBE gel, 0.5x TBE, 4 C; conditions: protein: recombinant; tags: His; label: Cy3 (end); hairpin, 10 bp stem with AAA loop
# [1] = molecular target: T2, full-length recombinant PARP1 protein (UniProt P09874 1-1014); assay: pull-down; GST-SET8 fusions on glutathione-Sepharose beads, full-length recombinant PARP1 in solution; 1X PBS with 0.1% Triton X-100, 100 µg/ml BSA, 4 °C, 1 h; washes with 1% Triton X-100; western blot with anti-PARP1; conditions: both partners purified
# T2 construct: PARP1, full-length recombinant protein bought from Active Motif; also called purified PARP1; PARP1 recombinant enzyme; source: bought: Active Motif (# 81037)
# T2 sequence (P09874 whole entry, the tested form may be a part): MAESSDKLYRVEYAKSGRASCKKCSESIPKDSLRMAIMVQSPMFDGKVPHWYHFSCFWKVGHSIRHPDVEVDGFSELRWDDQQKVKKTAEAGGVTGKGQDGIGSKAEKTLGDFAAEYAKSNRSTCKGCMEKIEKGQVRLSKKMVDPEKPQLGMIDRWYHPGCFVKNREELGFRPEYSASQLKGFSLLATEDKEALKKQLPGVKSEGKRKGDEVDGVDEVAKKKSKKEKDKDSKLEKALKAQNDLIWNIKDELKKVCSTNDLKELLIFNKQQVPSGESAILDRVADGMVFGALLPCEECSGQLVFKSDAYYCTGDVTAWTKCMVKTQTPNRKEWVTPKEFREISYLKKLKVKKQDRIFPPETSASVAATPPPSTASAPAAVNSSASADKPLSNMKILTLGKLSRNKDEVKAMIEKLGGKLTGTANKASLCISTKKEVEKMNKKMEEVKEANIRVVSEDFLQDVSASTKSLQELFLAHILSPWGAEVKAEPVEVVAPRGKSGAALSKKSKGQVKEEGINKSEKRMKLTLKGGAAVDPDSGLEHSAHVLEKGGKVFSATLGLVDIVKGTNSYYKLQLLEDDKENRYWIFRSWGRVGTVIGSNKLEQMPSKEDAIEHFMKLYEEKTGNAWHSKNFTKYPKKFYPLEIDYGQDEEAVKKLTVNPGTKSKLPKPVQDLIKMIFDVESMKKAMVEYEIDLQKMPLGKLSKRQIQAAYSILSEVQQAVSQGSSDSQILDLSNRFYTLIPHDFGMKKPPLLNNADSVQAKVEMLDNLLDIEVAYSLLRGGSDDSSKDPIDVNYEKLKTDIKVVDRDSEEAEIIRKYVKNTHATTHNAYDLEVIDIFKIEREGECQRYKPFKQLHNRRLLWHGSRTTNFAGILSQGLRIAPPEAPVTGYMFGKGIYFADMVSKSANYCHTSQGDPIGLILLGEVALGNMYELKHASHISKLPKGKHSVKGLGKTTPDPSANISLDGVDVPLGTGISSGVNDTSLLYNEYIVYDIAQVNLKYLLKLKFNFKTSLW
binder,measurement,setting,value
B1,Kd,His-SET8,1.6 ± 0.6 µM
B2,binding result,[1],binds
B3,binding result,[1],binds
B4,binding result,[1],binds
